Reference: PMC5510004, “Recruitment and positioning determine the specific role of the XPF‐ERCC1 endonuclease in interstrand crosslink repair”
Changes are numbered by the printed parent chain.

Legend:
[1] = target: T1, XPF wild type (xlXPF);ERCC1 wild type (hsERCC1) (Xenopus laevis;Homo sapiens?, UniProt A0A8J0PXV9;P07992 1-897;1-297, |); assay: fluorescence anisotropy; 2 mM Ca2+; 25 mM Hepes pH 8.0, 15% glycerol, 0.1 mg/ml BSA, 2 mM CaCl2, 10 nM DNA, 1 h at room temperature; settings: protein: recombinant;recombinant; tags: FLAG;His; copies: 1;1; label: 5'-FAM on F1; three strands 1:1:1
T1 sequence 1: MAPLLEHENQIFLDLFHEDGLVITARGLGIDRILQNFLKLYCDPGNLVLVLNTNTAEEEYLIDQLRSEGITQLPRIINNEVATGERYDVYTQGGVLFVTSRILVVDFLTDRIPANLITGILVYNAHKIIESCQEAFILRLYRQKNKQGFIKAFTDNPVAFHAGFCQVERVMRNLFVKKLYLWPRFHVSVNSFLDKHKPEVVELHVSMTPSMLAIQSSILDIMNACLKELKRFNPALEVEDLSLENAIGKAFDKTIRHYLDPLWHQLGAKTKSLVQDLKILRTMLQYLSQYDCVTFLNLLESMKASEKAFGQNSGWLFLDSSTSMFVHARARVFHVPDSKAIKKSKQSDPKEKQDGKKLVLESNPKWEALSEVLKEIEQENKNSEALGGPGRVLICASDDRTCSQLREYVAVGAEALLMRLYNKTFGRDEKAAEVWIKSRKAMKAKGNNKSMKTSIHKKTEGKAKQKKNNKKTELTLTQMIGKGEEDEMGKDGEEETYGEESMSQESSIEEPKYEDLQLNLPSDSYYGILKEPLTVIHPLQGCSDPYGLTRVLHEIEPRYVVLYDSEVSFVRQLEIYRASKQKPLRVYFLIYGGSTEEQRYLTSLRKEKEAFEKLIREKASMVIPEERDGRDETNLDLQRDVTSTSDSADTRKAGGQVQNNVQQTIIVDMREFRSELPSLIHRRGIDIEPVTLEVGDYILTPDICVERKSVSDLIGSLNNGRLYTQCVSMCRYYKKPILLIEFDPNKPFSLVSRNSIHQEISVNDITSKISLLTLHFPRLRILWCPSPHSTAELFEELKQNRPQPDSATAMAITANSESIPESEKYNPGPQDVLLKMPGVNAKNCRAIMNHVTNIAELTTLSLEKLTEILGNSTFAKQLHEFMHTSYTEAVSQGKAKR
T1 sequence 2: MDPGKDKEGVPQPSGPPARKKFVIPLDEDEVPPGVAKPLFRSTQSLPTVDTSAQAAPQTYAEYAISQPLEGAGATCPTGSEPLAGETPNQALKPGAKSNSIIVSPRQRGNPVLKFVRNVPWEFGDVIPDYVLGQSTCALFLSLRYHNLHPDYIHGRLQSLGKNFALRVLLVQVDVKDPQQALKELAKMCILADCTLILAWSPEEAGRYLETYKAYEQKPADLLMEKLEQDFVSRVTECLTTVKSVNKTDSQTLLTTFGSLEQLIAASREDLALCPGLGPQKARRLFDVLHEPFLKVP

[2] = target: T2, XPF C225R;ERCC1 wild type (hsERCC1) (Xenopus laevis;Homo sapiens?, UniProt A0A8J0PXV9;P07992 1-897;1-297, C225R|); assay: fluorescence anisotropy; 2 mM Ca2+; comparable to wild type; 25 mM Hepes pH 8.0, 15% glycerol, 0.1 mg/ml BSA, 2 mM CaCl2, 10 nM DNA, 1 h at room temperature; settings: protein: recombinant;recombinant; tags: FLAG;His; copies: 1;1; label: 5'-FAM on F1; three strands 1:1:1
T2 sequence 1: T1 sequence 1 with C225R
T2 sequence 2: T1 sequence 2

B1: 3' flap DNA substrate (F1+F2+F3) (dsDNA)
DNA 1: CGCGATGCGGATCCAA
DNA 2: CCTAGACTTAAGAGGCCAGACTTGGATCCGCATCGC
DNA 3: GGCCTCTTAAGTCTAGG
- binding result [1]: binds
- binding result [2]: binds
